T1: full-length Sudan GP (GPFL) (Sudan virus (SUDV), UniProt Q7T9D9 33-650)
T1 construct: also called Sudan GPFL; GP(S)FL
T1 sequence: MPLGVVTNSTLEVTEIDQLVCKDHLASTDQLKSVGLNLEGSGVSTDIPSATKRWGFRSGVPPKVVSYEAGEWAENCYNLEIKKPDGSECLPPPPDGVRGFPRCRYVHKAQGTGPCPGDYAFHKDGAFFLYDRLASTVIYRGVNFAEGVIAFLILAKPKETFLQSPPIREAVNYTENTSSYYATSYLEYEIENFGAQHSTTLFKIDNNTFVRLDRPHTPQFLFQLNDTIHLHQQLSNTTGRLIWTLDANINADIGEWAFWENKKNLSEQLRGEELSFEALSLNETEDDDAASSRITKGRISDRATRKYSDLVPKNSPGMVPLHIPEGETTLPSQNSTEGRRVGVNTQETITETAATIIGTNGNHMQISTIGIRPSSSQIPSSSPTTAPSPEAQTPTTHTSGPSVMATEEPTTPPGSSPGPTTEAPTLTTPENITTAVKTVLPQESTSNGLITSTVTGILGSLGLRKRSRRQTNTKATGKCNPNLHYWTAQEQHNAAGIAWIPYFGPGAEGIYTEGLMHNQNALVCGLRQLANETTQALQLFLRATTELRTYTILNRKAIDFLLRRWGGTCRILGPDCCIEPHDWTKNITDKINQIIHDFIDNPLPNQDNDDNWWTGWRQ

T2: SUDV GP on pseudotyped lentiviral vector (Sudan virus (SUDV), UniProt Q7T9D9 33-676)
T2 sequence: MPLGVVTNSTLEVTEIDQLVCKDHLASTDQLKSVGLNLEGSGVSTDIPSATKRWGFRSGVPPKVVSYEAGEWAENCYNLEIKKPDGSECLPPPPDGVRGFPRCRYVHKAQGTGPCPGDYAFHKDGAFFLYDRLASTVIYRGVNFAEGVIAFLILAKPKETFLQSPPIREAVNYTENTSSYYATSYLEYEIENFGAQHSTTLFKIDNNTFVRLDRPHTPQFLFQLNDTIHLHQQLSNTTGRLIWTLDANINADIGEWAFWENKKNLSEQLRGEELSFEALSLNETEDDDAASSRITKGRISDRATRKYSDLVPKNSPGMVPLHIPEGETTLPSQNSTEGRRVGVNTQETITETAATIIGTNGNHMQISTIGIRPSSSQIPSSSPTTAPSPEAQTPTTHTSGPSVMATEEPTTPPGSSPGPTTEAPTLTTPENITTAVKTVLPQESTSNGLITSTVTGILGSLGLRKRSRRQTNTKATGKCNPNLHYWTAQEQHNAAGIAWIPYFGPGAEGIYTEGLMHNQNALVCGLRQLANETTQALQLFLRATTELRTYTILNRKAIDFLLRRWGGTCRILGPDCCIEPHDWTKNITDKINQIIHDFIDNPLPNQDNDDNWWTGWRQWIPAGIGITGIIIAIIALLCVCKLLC

B1: antibody 545S (antibody, V domains shown)
VH: QVQLQESGPGLVKPSQTLSLTCTVSGGSISRAGSYWSWIRQHPGKGLEWIGYISYSGSTYYNPSLESRVTMSLDTSKSQFSLKLSSVTAADTAVYYCAREDRSGFYGLDVWGQGTTVTVSS
VL: QSVLTQPSSLSASPGATASLTCTLRSGINVDTYRIYWYQQKPGSPPQYLLRYKSDSDKHQGSGVPSRFSGSKDASANAGILLISGLQSADEADYYCMIWHSGAWVFGGGTKLTVQG
notes: also called 545S mAb
B2: antibody 291S (antibody, V domains shown)
VH: QVQLQESGPGLVKPSQTLSLTCTVSGGSFSSGFYWSWIRQRPGKGLEWVGYTYYSGSTYYNPSLQSRVTISVDTSKNQFSLNLSSVTAADTAVYHCARADYGGLFDYWGQGILVTVSS
VL: QSVLTQPSSLSASPGASASLTCTLRSGINVGTYRIFWYQQKPGSPPQFLLRYNSDSDKQQGSGVPSRFSGSKDASANAGILLISGLQSEDEADYYCMIWHTSAWVFGGGTKLTVL

What was measured:
[1] = biological target: T1, full-length Sudan GP (GPFL); assay: ELISA on coated GP
[2] = biological target: T2, SUDV GP on pseudotyped lentiviral vector; assay: cell-based or functional assay

Row | Binder | EC50 [1] [µg/mL] | IC50, microneutralization of GP-pseudotyped lentiviral vector on HEK293 cells [2] [µg/mL]
1 | B1 | 0.0338 | 0.624
2 | B2 | 0.0565 | 2.89

Source: patent publication US20260209316A1 (US Dept. of Health and Human Services, published 2026)
